Six molecules from US9958461B2, “Detection of protein to protein interactions” (THE GOVERNING COUNCIL OF THE UNIVERSITY OF TORONTO, priority 2013, dated 2018) can be followed below.

For one assay, the target named is T1, EGFR-L858R (Homo sapiens, UniProt P00533, L858R).
T1 construct: with the advantage of testing full-length integral membrane proteins; (GGGGS)2 linker-Cub (human ubiquitin aa 35-76)-GAL4(1-147)-mNFkB(364-550) (C); expressed in transfected cells
The assay is described as follows: MaMTH EGFR-interactor screen, lentiviral preys against EGFR-L858R bait (interaction score). Type of assay: cell-based. Particulars: MaMTH interaction score of prey with EGFR-L858R bait. The method, then:
(§1) After lentivirus harvest, target cells (stable 5×GAL4UAS-luciferase reporter-HEK293T cells) were infected at a multiplicity of infection (MOI) of around 0.3-0.4 to ensure single copy integration per cell. Cells were selected in puromycin for at least 48 h and transfected with either EGFR-wildtype or EGFR-L858R baits in triplicates. 24 h after transfection, cells were lysed and luciferase assays performed. On each set of interaction assays, various negative controls were included. To calculate a MaMTH-interaction scores, negative controls were averaged and the fold-change of luciferase activity compared to the averaged controls was calculated and defined as the interaction score.
(§2) Each set of experiments contains a defined set of negative controls in at least three replicates. Negative controls were chosen as such that there is a range of controls showing high-background luciferase activity (normally cytosolic proteins: Fabp5, Pex19) as well as medium-background luciferase activity (membrane-bound interactors: Pex7, GABBR2). Negative controls were averaged and the fold-change of luciferase activity was calculated. Using this method, we have a stringent cut-off and chose an interaction score >1 to be interacting proteins.
(§3) Our cut-off of 1 is based on fold-change difference in luciferase activity over averaged negative controls. Negative controls include cytosolic preys (which tend to promiscuously bind to many proteins), plasma membrane- and peroxisomal-prey proteins. In general, we chose stringent conditions by testing preys that tend to have high luciferase background with any bait tested, in order to generate high-confidence interaction data. […] Phosphorylated tyrosine residues on the receptor are typically docking sites for downstream cytoplasmic targets and recognized through SH2 or PTB domains^43.

Assay [1] deals with T2, EGFR-Wt (Homo sapiens, UniProt P00533).
T2 construct: with the advantage of testing full-length integral membrane proteins; (GGGGS)2 linker-Cub (human ubiquitin aa 35-76)-GAL4(1-147)-mNFkB(364-550) (C); expressed in transfected cells
The assay is described as follows: MaMTH EGFR-interactor screen, lentiviral preys against EGFR-wildtype bait (interaction score). It counts as cell-based. Particulars: MaMTH interaction score of prey with EGFR-Wt bait, mean. The protocol: as §1, §2, §3

Assay [2] relates to EGFR-Wt. Described as above. Particulars: ratio of EGFR-Wt mean to EGFR-L858R mean interaction score. Type of assay: cell-based, human. The method, then:
as §1, §2, §3

B1: CTTN (protein, UniProt Q14247 1-550, looked up)
Src substrate cortactin: MWKASAGHAVSIAQDDAGADDWETDPDFVNDVSEKEQRWGAKTVQGSGHQEHINIHKLRENVFQEHQTLKEKELETGPKASHGYGGKFGVEQDRMDKSAVGHEYQSKLSKHCSQVDSVRGFGGKFGVQMDRVDQSAVGFEYQGKTEKHASQKDYSSGFGGKYGVQADRVDKSAVGFDYQGKTEKHESQRDYSKGFGGKYGIDKDKVDKSAVGFEYQGKTEKHESQKDYVKGFGGKFGVQTDRQDKCALGWDHQEKLQLHESQKDYKTGFGGKFGVQSERQDSAAVGFDYKEKLAKHESQQDYSKGFGGKYGVQKDRMDKNASTFEDVTQVSSAYQKTVPVEAVTSKTSNIRANFENLAKEKEQEDRRKAEAERAQRMAKERQEQEEARRKLEEQARAKTQTPPVSPAPQPTEERLPSSPVYEDAASFKAELSYRGPVSGTEPEPVYSMEAADYREASSQQGLAYATEAVYESAEAPGHYPAEDSTYDEYENDLGITAVALYDYQAAGDDEISFDPDDIITNIEMIDDGWWRGVCKGRYGLFPANYVELRQ
Regarding B1, the EGFR-L858R mean in the assay with EGFR-L858R worked out at 22.11. The molecule also returned an EGFR-Wt mean in the assay with EGFR-Wt [1] of 33.81. The Wt/L858R in the assay with EGFR-Wt [2] was 1.53.

B2: STAM (protein, UniProt Q92783 2-540, looked up)
Signal transducing adapter …: PLFATNPFDQDVEKATSEMNTAEDWGLILDICDKVGQSRTGPKDCLRSIMRRVNHKDPHVAMQALTLLGACVSNCGKIFHLEVCSRDFASEVSNVLNKGHPKVCEKLKALMVEWTDEFKNDPQLSLISAMIKNLKEQGVTFPAIGSQAAEQAKASPALVAKDPGTVANKKEEEDLAKAIELSLKEQRQQSTTLSTLYPSTSSLLTNHQHEGRKVRAIYDFEAAEDNELTFKAGEIITVLDDSDPNWWKGETHQGIGLFPSNFVTADLTAEPEMIKTEKKTVQFSDDVQVETIEPEPEPAFIDEDKMDQLLQMLQSTDPSDDQPDLPELLHLEAMCHQMGPLIDEKLEDIDRKHSELSELNVKVMEALSLYTKLMNEDPMYSMYAKLQNQPYYMQSSGVSGSQVYAGPPPSGAYLVAGNAQMSHLQSYSLPPEQLSSLSQAVVPPSANPALPSQQTQAAYPNTMVSSVQGNTYPSQAPVYSPPPAATAAAATADVTLYQNAGPNMPQVPNYNLTSSTLPQPGGSQQPPQPQQPYSQKALL
B2 yielded an EGFR-L858R mean in the assay with EGFR-L858R of 2.49. This molecule also came in with an EGFR-Wt mean with EGFR-Wt [1] of 0.56. The Wt/L858R with EGFR-Wt [2] amounted to 0.23.

B3: TNK2 (protein, UniProt Q07912 1-1038, looked up)
Activated CDC42 kinase 1: MQPEEGTGWLLELLSEVQLQQYFLRLRDDLNVTRLSHFEYVKNEDLEKIGMGRPGQRRLWEAVKRRKALCKRKSWMSKVFSGKRLEAEFPPHHSQSTFRKTSPAPGGPAGEGPLQSLTCLIGEKDLRLLEKLGDGSFGVVRRGEWDAPSGKTVSVAVKCLKPDVLSQPEAMDDFIREVNAMHSLDHRNLIRLYGVVLTPPMKMVTELAPLGSLLDRLRKHQGHFLLGTLSRYAVQVAEGMGYLESKRFIHRDLAARNLLLATRDLVKIGDFGLMRALPQNDDHYVMQEHRKVPFAWCAPESLKTRTFSHASDTWMFGVTLWEMFTYGQEPWIGLNGSQILHKIDKEGERLPRPEDCPQDIYNVMVQCWAHKPEDRPTFVALRDFLLEAQPTDMRALQDFEEPDKLHIQMNDVITVIEGRAENYWWRGQNTRTLCVGPFPRNVVTSVAGLSAQDISQPLQNSFIHTGHGDSDPRHCWGFPDRIDELYLGNPMDPPDLLSVELSTSRPPQHLGGVKKPTYDPVSEDQDPLSSDFKRLGLRKPGLPRGLWLAKPSARVPGTKASRGSGAEVTLIDFGEEPVVPALRPCAPSLAQLAMDACSLLDETPPQSPTRALPRPLHPTPVVDWDARPLPPPPAYDDVAQDEDDFEICSINSTLVGAGVPAGPSQGQTNYAFVPEQARPPPPLEDNLFLPPQGGGKPPSSAQTAEIFQALQQECMRQLQAPAGSPAPSPSPGGDDKPQVPPRVPIPPRPTRPHVQLSPAPPGEEETSQWPGPASPPRVPPREPLSPQGSRTPSPLVPPGSSPLPPRLSSSPGKTMPTTQSFASDPKYATPQVIQAPGPRAGPCILPIVRDGKKVSSTHYYLLPERPSYLERYQRFLREAQSPEEPTPLPVPLLLPPPSTPAPAAPTATVRPMPQAALDPKANFSTNNSNPGARPPPPRATARLPQRGCPGDGPEAGRPADKIQMAMVHGVTTEECQAALQCHGWSVQRAAQYLKVEQLFGLGLRPRGECHKVLEMFDWNLEQAGCHLLGSWGPAHHKR
On to B3, for which the EGFR-L858R mean in the assay with EGFR-L858R amounted to 1.30. The molecule also yielded an EGFR-Wt mean with EGFR-Wt [1] of 1.51. Besides, the Wt/L858R in the assay on EGFR-Wt [2] stood at 1.16.

B4: RIN1 (protein, UniProt Q13671 1-783, looked up)
Ras and Rab interactor 1: MESPGESGAGSPGAPSPSSFTTGHLAREKPAQDPLYDVPNASGGQAGGPQRPGRVVSLRERLLLTRPVWLQLQANAAAALHMLRTEPPGTFLVRKSNTRQCQALCMRLPEASGPSFVSSHYILESPGGVSLEGSELMFPDLVQLICAYCHTRDILLLPLQLPRAIHHAATHKELEAISHLGIEFWSSSLNIKAQRGPAGGPVLPQLKARSPQELDQGTGAALCFFNPLFPGDLGPTKREKFKRSFKVRVSTETSSPLSPPAVPPPPVPVLPGAVPSQTERLPPCQLLRRESSVGYRVPAGSGPSLPPMPSLQEVDCGSPSSSEEEGVPGSRGSPATSPHLGRRRPLLRSMSAAFCSLLAPERQVGRAAAALMQDRHTAAGQLVQDLLTQVRAGPEPQELQGIRQALSRARAMLSAELGPEKLLSPKRLEHVLEKSLHCSVLKPLRPILAARLRRRLAADGSLGRLAEGLRLARAQGPGAFGSHLSLPSPVELEQVRQKLLQLLRTYSPSAQVKRLLQACKLLYMALRTQEGEGAGADEFLPLLSLVLAHCDLPELLLEAEYMSELLEPSLLTGEGGYYLTSLSASLALLSGLGQAHTLPLSPVQELRRSLSLWEQRRLPATHCFQHLLRVAYQDPSSGCTSKTLAVPPEASIATLNQLCATKFRVTQPNTFGLFLYKEQGYHRLPPGALAHRLPTTGYLVYRRAEWPETQGAVTEEEGSGQSEARSRGEEQGCQGDGDAGVKASPRDIREQSETTAEGGQGQAQEGPAQPGEPEAEGSRAAEE
The molecule B4 gave an EGFR-L858R mean with EGFR-L858R of 1.84. In the assay with EGFR-Wt [1], this molecule yielded an EGFR-Wt mean of 2.19. In addition, in the assay with EGFR-Wt [2], the Wt/L858R came out at 1.19.

B5: CSK (protein, UniProt P41240 2-450, looked up)
Tyrosine-protein kinase CSK: SAIQAAWPSGTECIAKYNFHGTAEQDLPFCKGDVLTIVAVTKDPNWYKAKNKVGREGIIPANYVQKREGVKAGTKLSLMPWFHGKITREQAERLLYPPETGLFLVRESTNYPGDYTLCVSCDGKVEHYRIMYHASKLSIDEEVYFENLMQLVEHYTSDADGLCTRLIKPKVMEGTVAAQDEFYRSGWALNMKELKLLQTIGKGEFGDVMLGDYRGNKVAVKCIKNDATAQAFLAEASVMTQLRHSNLVQLLGVIVEEKGGLYIVTEYMAKGSLVDYLRSRGRSVLGGDCLLKFSLDVCEAMEYLEGNNFVHRDLAARNVLVSEDNVAKVSDFGLTKEASSTQDTGKLPVKWTAPEALREKKFSTKSDVWSFGILLWEIYSFGRVPYPRIPLKDVVPRVEKGYKMDAPDGCPPAVYEVMKNCWHLDAAMRPSFLQLREQLEHIKTHELHL
Take B5: in the assay with EGFR-L858R, the EGFR-L858R mean was found to be 5.86. In addition, the EGFR-Wt mean with EGFR-Wt [1] turned out to be 8.40. Besides, the Wt/L858R in the assay with EGFR-Wt [2] amounted to 1.43.

B6: RAPGEF1 (protein, UniProt Q13905 1-1077, looked up)
Rap guanine nucleotide …: MDTDSQRSHLSSFTMKLMDKFHSPKIKRTPSKKGKPAEVSVKIPEKPVNKEATDRFLPEGYPLPLDLEQQAVEFMSTSAVASRSQRQKNLSWLEEKEKEVVSALRYFKTIVDKMAIDKKVLEMLPGSASKVLEAILPLVQNDPRIQHSSALSSCYSRVYQSLANLIRWSDQVMLEGVNSEDKEMVTTVKGVIKAVLDGVKELVRLTIEKQGRPSPTSPVKPSSPASKPDGPAELPLTDREVEILNKTTGMSQSTELLPDATDEEVAPPKPPLPGIRVVDNSPPPALPPKKRQSAPSPTRVAVVAPMSRATSGSSLPVGINRQDFDVDCYAQRRLSGGSHSYGGESPRLSPCSSIGKLSKSDEQLSSLDRDSGQCSRNTSCETLDHYDPDYEFLQQDLSNADQIPQQTAWNLSPLPESLGESGSPFLGPPFQLPLGGHPQPDGPLAPGQQTDTPPALPEKKRRSAASQTADGSGCRVSYERHPSQYDNISGEDLQSTAPIPSVPYAPFAAILPFQHGGSSAPVEFVGDFTAPESTGDPEKPPPLPEKKNKHMLAYMQLLEDYSEPQPSMFYQTPQNEHIYQQKNKLLMEVYGFSDSFSGVDSVQELAPPPALPPKQRQLEPPAGKDGHPRDPSAVSGVPGKDSRDGSERAPKSPDALESAQSEEEVDELSLIDHNEIMSRLTLKQEGDDGPDVRGGSGDILLVHATETDRKDLVLYCEAFLTTYRTFISPEELIKKLQYRYEKFSPFADTFKKRVSKNTFFVLVRVVDELCLVELTEEILKLLMELVFRLVCNGELSLARVLRKNILDKVDQKKLLRCATSSQPLAARGVAARPGTLHDFHSHEIAEQLTLLDAELFYKIEIPEVLLWAKEQNEEKSPNLTQFTEHFNNMSYWVRSIIMLQEKAQDRERLLLKFIKIMKHLRKLNNFNSYLAILSALDSAPIRRLEWQKQTSEGLAEYCTLIDSSSSFRAYRAALSEVEPPCIPYLGLILQDLTFVHLGNPDYIDGKVNFSKRWQQFNILDSMRCFQQAHYDMRRNDDIINFFNDFSDHLAEEALWELSLKIKPRNITRRKTDREEKT
In the assay with EGFR-L858R, B6 came in with an EGFR-L858R mean of 3.15. The EGFR-Wt mean with EGFR-Wt [1] came out at 3.48. Moreover, the Wt/L858R in the assay with EGFR-Wt [2] was found to be 1.10.
